{"source": "the RNAGym collection of RNA variant scans (doi:10.1101/gr.219683.116)", "parents": {"B1": {"name": "mRNA-splicing (parent)", "chain": "AGUUGCUGCUGGGAGCUCCAGCACAGUGAAAUGGACAGAAGGGCAGAGCAA"}}}
{"variants_of": "B1", "assay": "exon inclusion enrichment index; higher = more inclusion; WT1 exon 5 minigene, HEK293"}
{"variant": "AGUUCACACAGGGAGCUCCCACACAGUGAAAUGGACAGAAGGGCAGAGCAA", "note": "[G5C C6A U7C G8A U10A A20C G21A]", "exon inclusion enrichment index": 0.0158}
{"variant": "AGUUCACACAGGGAGCUCCAGCACAGUGCGAUGGACAGAAGGGCAGAGCAA", "note": "[G5C C6A U7C G8A U10A A29C A30G]", "exon inclusion enrichment index": 0.291}
{"variant": "AGUUCACACAGGGAGCUCCAGCACAGUGCUAUGGACAGAAGGGCAGAGCAA", "note": "[G5C C6A U7C G8A U10A A29C A30U]", "exon inclusion enrichment index": 0.0384}
{"variant": "AGUUCACACAGGGAGCUCCAGCACAGUGCCAUGGACAGAAGGGCAGAGCAA", "note": "[G5C C6A U7C G8A U10A A29C A30C]", "exon inclusion enrichment index": 0.217}
{"variant": "AGUUCACACAGGGAGCUCCAGCACAGUGAAUGGGACAGAAGGGCAGAGCAA", "note": "[G5C C6A U7C G8A U10A A31U U32G]", "exon inclusion enrichment index": 0.0217}
{"variant": "AGUUCACACAGGGAGCUCCAGCACAGUGAAUAGGACAGAAGGGCAGAGCAA", "note": "[G5C C6A U7C G8A U10A A31U U32A]", "exon inclusion enrichment index": 0.00816}
{"variant": "AGUUCACACAGGGAGCUCCAGCACAGUGAAUCGGACAGAAGGGCAGAGCAA", "note": "[G5C C6A U7C G8A U10A A31U U32C]", "exon inclusion enrichment index": 0.293}
{"variant": "AGUUCACACAGGGAGCUCCAGCACAGUGACUUGGACAGAAGGGCAGAGCAA", "note": "[G5C C6A U7C G8A U10A A30C A31U]", "exon inclusion enrichment index": 0.168}
{"variant": "AGUUCACACAGGGAGCUCCAGCACAGUGACGUGGACAGAAGGGCAGAGCAA", "note": "[G5C C6A U7C G8A U10A A30C A31G]", "exon inclusion enrichment index": 0.372}
{"variant": "AGUUCACACAGGGAGCUCCAGCACAGUGACCUGGACAGAAGGGCAGAGCAA", "note": "[G5C C6A U7C G8A U10A A30C A31C]", "exon inclusion enrichment index": 0.314}
{"variant": "AGUUCACACAGGGAGCUCCAGCACCGUGAAAUGGACAGAAGGGCAGAGCAA", "note": "[G5C C6A U7C G8A U10A A25C]", "exon inclusion enrichment index": 0.77}
{"variant": "AGUUCACACAGGGAGCUCCAGCACUGUGAAAUGGACAGAAGGGCAGAGCAA", "note": "[G5C C6A U7C G8A U10A A25U]", "exon inclusion enrichment index": 0.205}
{"variant": "AGUUCACACAGGGAGCUCCAGCACGGUGAAAUGGACAGAAGGGCAGAGCAA", "note": "[G5C C6A U7C G8A U10A A25G]", "exon inclusion enrichment index": 0.601}
{"variant": "AGUUCACACAGGGAGCUCCAGCACCAUGAAAUGGACAGAAGGGCAGAGCAA", "note": "[G5C C6A U7C G8A U10A A25C G26A]", "exon inclusion enrichment index": 0.352}
{"variant": "AGUUCACACAGGGAGCUCCAGCACCUUGAAAUGGACAGAAGGGCAGAGCAA", "note": "[G5C C6A U7C G8A U10A A25C G26U]", "exon inclusion enrichment index": 0.241}
{"variant": "AGUUCACACAGGGAGCUCCAGCACCCUGAAAUGGACAGAAGGGCAGAGCAA", "note": "[G5C C6A U7C G8A U10A A25C G26C]", "exon inclusion enrichment index": 0.037}
{"variant": "AGUUCACACAGGGAGCUCCAGCACUUUGAAAUGGACAGAAGGGCAGAGCAA", "note": "[G5C C6A U7C G8A U10A A25U G26U]", "exon inclusion enrichment index": 0.111}
{"variant": "AGUUCACACAGGGAGCUCCAGCACUAUGAAAUGGACAGAAGGGCAGAGCAA", "note": "[G5C C6A U7C G8A U10A A25U G26A]", "exon inclusion enrichment index": 0.172}
{"variant": "AGUUCACACAGGGAGCUCCAGCACUCUGAAAUGGACAGAAGGGCAGAGCAA", "note": "[G5C C6A U7C G8A U10A A25U G26C]", "exon inclusion enrichment index": 0.181}
{"variant": "AGUUCACACAGGGAGCUCCAGCACAGUGAAAUGGUGAGAAGGGCAGAGCAA", "note": "[G5C C6A U7C G8A U10A A35U C36G]", "exon inclusion enrichment index": 0.00777}
{"variant": "AGUUCACACAGGGAGCUCCAGCACAGUGAAAUGGUAAGAAGGGCAGAGCAA", "note": "[G5C C6A U7C G8A U10A A35U C36A]", "exon inclusion enrichment index": 0.00105}
{"variant": "AGUUCACACAGGGAGCUCCAGCACAGUGAAAUGGUUAGAAGGGCAGAGCAA", "note": "[G5C C6A U7C G8A U10A A35U C36U]", "exon inclusion enrichment index": 0.00092}
{"variant": "AGUUCACACAGGGAGCUCCAGCACAGUGAAAUGGACCUAAGGGCAGAGCAA", "note": "[G5C C6A U7C G8A U10A A37C G38U]", "exon inclusion enrichment index": 0.0457}
{"variant": "AGUUCACACAGGGAGCUCCAGCACAGUGAAAUGGACCAAAGGGCAGAGCAA", "note": "[G5C C6A U7C G8A U10A A37C G38A]", "exon inclusion enrichment index": 0.149}
{"variant": "AGUUCACACAGGGAGCUCCAGCACAGUGAAAUGGACCCAAGGGCAGAGCAA", "note": "[G5C C6A U7C G8A U10A A37C G38C]", "exon inclusion enrichment index": 0.176}
{"variant": "AGUUCACACAGGGAGCUCCAGCACAGUGAAAUGGACCGAAGGGCAGAGCAA", "note": "[G5C C6A U7C G8A U10A A37C]", "exon inclusion enrichment index": 0.426}
{"variant": "AGUUCACACAGGGAGCUCCAGCACAGUGAAAUGGACGGAAGGGCAGAGCAA", "note": "[G5C C6A U7C G8A U10A A37G]", "exon inclusion enrichment index": 0.237}
{"variant": "AGUUCACACAGGGAGCUCCAGCACAGUGAGUUGGACAGAAGGGCAGAGCAA", "note": "[G5C C6A U7C G8A U10A A30G A31U]", "exon inclusion enrichment index": 0.018}
{"variant": "AGUUCACACAGGGAGCUCCAGCACAGUGAGGUGGACAGAAGGGCAGAGCAA", "note": "[G5C C6A U7C G8A U10A A30G A31G]", "exon inclusion enrichment index": 0.0207}
{"variant": "AGUUCACACAGGGAGCUCCAGCACAGUGAGCUGGACAGAAGGGCAGAGCAA", "note": "[G5C C6A U7C G8A U10A A30G A31C]", "exon inclusion enrichment index": 0.00678}
{"variant": "AGUUCACACAGGGGUCUCCAGCACAGUGAAAUGGACAGAAGGGCAGAGCAA", "note": "[G5C C6A U7C G8A U10A A14G G15U]", "exon inclusion enrichment index": 0.0158}
{"variant": "AGUUCACACAGGGGACUCCAGCACAGUGAAAUGGACAGAAGGGCAGAGCAA", "note": "[G5C C6A U7C G8A U10A A14G G15A]", "exon inclusion enrichment index": 0.119}
{"variant": "AGUUCACACAGGGGCCUCCAGCACAGUGAAAUGGACAGAAGGGCAGAGCAA", "note": "[G5C C6A U7C G8A U10A A14G G15C]", "exon inclusion enrichment index": 0.0391}
{"variant": "AGUUCACACAGGGAGCUCCAGCACAGUGAACCGGACAGAAGGGCAGAGCAA", "note": "[G5C C6A U7C G8A U10A A31C U32C]", "exon inclusion enrichment index": 0.385}
{"variant": "AGUUCACACAGGGAGCUCCAGCACAGUGAACAGGACAGAAGGGCAGAGCAA", "note": "[G5C C6A U7C G8A U10A A31C U32A]", "exon inclusion enrichment index": 0.0301}
{"variant": "AGUUCACACAGGGAGCUCCAGCACAGUGAACGGGACAGAAGGGCAGAGCAA", "note": "[G5C C6A U7C G8A U10A A31C U32G]", "exon inclusion enrichment index": 0.221}
{"variant": "AGUUCACACAGGGAGCUCCAGCACAGUGAUUUGGACAGAAGGGCAGAGCAA", "note": "[G5C C6A U7C G8A U10A A30U A31U]", "exon inclusion enrichment index": 0.0758}
{"variant": "AGUUCACACAGGGAGCUCCAGCACAGUGAUCUGGACAGAAGGGCAGAGCAA", "note": "[G5C C6A U7C G8A U10A A30U A31C]", "exon inclusion enrichment index": 0.143}
{"variant": "AGUUCACACAGGGAGCUCCAGCACAGUGAUGUGGACAGAAGGGCAGAGCAA", "note": "[G5C C6A U7C G8A U10A A30U A31G]", "exon inclusion enrichment index": 0.105}
{"variant": "AGUUCACACAGGGAGCUCCAGCACAGUGAAAUGGCUAGAAGGGCAGAGCAA", "note": "[G5C C6A U7C G8A U10A A35C C36U]", "exon inclusion enrichment index": 0.0111}
{"variant": "AGUUCACACAGGGAGCUCCAGCACAGUGAAAUGGCGAGAAGGGCAGAGCAA", "note": "[G5C C6A U7C G8A U10A A35C C36G]", "exon inclusion enrichment index": 0.107}
{"variant": "AGUUCACACAGGGAGCUCCAGCACAGUGAAAUGGCAAGAAGGGCAGAGCAA", "note": "[G5C C6A U7C G8A U10A A35C C36A]", "exon inclusion enrichment index": 0.0377}
{"variant": "AGUUCACACAGGGAGCUCCAGCACAGUGGCAUGGACAGAAGGGCAGAGCAA", "note": "[G5C C6A U7C G8A U10A A29G A30C]", "exon inclusion enrichment index": 0.0319}
{"variant": "AGUUCACACAGGGAGCUCCAGCACAGUGGGAUGGACAGAAGGGCAGAGCAA", "note": "[G5C C6A U7C G8A U10A A29G A30G]", "exon inclusion enrichment index": 0.0879}
{"variant": "AGUUCACACAGGGAGCUCCAGCACAGUGGUAUGGACAGAAGGGCAGAGCAA", "note": "[G5C C6A U7C G8A U10A A29G A30U]", "exon inclusion enrichment index": 0.0104}
{"variant": "AGUUCACACAGGGAGCUCCAGCUGAGUGAAAUGGACAGAAGGGCAGAGCAA", "note": "[G5C C6A U7C G8A U10A A23U C24G]", "exon inclusion enrichment index": 0.159}
{"variant": "AGUUCACACAGGGAGCUCCAGCUUAGUGAAAUGGACAGAAGGGCAGAGCAA", "note": "[G5C C6A U7C G8A U10A A23U C24U]", "exon inclusion enrichment index": 0.00309}
{"variant": "AGUUCACACAGGGAGCUCCAGCUAAGUGAAAUGGACAGAAGGGCAGAGCAA", "note": "[G5C C6A U7C G8A U10A A23U C24A]", "exon inclusion enrichment index": 0.0357}
{"variant": "AGUUCACACAGGGAGCUCCAGCACAGUGUCAUGGACAGAAGGGCAGAGCAA", "note": "[G5C C6A U7C G8A U10A A29U A30C]", "exon inclusion enrichment index": 0.0766}
{"variant": "AGUUCACACAGGGAGCUCCAGCACAGUGUUAUGGACAGAAGGGCAGAGCAA", "note": "[G5C C6A U7C G8A U10A A29U A30U]", "exon inclusion enrichment index": 0.0185}
{"variant": "AGUUCACACAGGGAGCUCCAGCACAGUGUGAUGGACAGAAGGGCAGAGCAA", "note": "[G5C C6A U7C G8A U10A A29U A30G]", "exon inclusion enrichment index": 0.125}
